Assay results reported in patent publication US20240117326A1 (COMMONWEALTH SCIENTIFIC AND INDUSTRIAL RESEARCH ORGANISATION, published 2024).

B1: MPP-processed MTP-FAγ51::NifU::TwinStrep fusion polypeptide encoded by SN166 (scar9::GG::NifU::TS) (other)
chain: not shown
notes: N-terminal analysis and the tryptic peptide ISTQVVR confirmed cleavage at the intended site; Purified from N. benthamiana leaves; also called scar9-NifU::TS; scar9-NifU-TwinStrep

Experiments:
[1] = molecular target: T1, MPP-processed MTP-FAγ51::NifS::HA fusion polypeptide encoded by SN31 (scar9::GG::NifS::HA) (Klebsiella oxytoca, UniProt P05344 1-397); experiment: co-purification on StreptactinXT column through NifU::TS from N. benthamiana leaf extract (SN31 + SN166), anaerobic, non-denaturing; anti-HA Western blot
T1 construct: also called scar9-NifS::HA; processed NifS
T1 sequence: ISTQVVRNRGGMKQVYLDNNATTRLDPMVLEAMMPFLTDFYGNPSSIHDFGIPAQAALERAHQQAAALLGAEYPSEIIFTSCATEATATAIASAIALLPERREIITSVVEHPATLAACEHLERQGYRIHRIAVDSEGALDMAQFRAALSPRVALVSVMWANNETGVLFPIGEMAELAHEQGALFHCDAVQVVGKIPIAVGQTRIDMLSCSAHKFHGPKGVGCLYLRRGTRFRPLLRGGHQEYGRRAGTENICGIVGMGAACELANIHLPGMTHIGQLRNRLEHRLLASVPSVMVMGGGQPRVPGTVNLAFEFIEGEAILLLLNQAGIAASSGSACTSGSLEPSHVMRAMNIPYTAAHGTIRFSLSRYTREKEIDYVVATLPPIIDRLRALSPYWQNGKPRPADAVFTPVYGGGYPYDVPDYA

[2] = molecular target: T2, MPP-processed MTP-FAγ51::HA::AnfD fusion polypeptide (gene of SN161; in SL26, SL34, SL43, SL93) (Azotobacter vinelandii, UniProt P16266 1-518); experiment: co-purification on Strep-tactin column through TwinStrep::AnfK (SL34), aerobic; anti-HA Western blot
T2 construct: also called HA::AnfD processed; AnfD polypeptide

[3] = molecular target: T3, MPP-processed MTP-FAγ51::AnfD::Twin Strep fusion polypeptide (gene of SN177, expressed from multi-gene vector … (Azotobacter vinelandii, UniProt P16266 1-518)); experiment: discussion of the AnfD::TwinStrep purification, aerobic
T3 construct: The eluted AnfD migrated at the size of the processed form; also called AnfD polypeptide (SL30)

[4] = molecular target: T4, MPP-processed MTP-FAγ51::NifU::HA fusion polypeptide encoded by SN32 (scar9::GG::NifU::HA) (Klebsiella oxytoca, UniProt P05343 1-274); experiment: co-purification on StrepTactinXT column through NifS::TS from N. benthamiana leaf extract (SN231 + SN32); anti-HA Western blot
T4 construct: also called scar9::NifU::HA; processed NifU
T4 sequence: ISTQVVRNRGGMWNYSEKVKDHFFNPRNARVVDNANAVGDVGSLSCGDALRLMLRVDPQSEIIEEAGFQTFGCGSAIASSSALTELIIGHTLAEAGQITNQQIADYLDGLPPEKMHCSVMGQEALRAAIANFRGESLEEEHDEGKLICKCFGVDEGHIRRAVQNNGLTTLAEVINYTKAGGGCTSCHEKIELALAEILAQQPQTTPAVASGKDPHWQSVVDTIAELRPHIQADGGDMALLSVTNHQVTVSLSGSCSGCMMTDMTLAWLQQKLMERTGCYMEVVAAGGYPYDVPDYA

[5] = molecular target: B1; experiment: co-purification on StreptactinXT column through NifU::TS from N. benthamiana leaf extract (SN31 + SN166), anaerobic, anti-HA Western blot of the eluate

T3 sequence (P16266 other isoform, or with tags, fused parts or gaps): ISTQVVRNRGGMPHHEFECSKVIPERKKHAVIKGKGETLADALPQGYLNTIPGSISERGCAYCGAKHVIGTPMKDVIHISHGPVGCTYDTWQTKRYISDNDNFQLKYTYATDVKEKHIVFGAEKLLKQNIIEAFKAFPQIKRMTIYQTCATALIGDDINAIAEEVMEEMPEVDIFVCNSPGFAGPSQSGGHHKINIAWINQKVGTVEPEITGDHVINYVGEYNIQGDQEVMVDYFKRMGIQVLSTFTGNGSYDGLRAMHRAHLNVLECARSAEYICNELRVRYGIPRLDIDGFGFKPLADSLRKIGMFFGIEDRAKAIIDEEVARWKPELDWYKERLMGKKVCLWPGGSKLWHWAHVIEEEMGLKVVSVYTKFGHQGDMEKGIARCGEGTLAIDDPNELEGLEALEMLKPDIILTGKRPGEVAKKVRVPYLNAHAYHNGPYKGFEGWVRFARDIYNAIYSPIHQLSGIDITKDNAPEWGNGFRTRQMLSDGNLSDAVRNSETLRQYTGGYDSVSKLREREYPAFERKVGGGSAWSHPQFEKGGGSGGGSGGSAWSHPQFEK

B1
binding result [1]: binds

B2: MPP-processed MTP-CoxIV::Twin Strep::AnfK fusion polypeptide (gene of SN195; in SL34, SL37, SL43) (enzyme)
chain: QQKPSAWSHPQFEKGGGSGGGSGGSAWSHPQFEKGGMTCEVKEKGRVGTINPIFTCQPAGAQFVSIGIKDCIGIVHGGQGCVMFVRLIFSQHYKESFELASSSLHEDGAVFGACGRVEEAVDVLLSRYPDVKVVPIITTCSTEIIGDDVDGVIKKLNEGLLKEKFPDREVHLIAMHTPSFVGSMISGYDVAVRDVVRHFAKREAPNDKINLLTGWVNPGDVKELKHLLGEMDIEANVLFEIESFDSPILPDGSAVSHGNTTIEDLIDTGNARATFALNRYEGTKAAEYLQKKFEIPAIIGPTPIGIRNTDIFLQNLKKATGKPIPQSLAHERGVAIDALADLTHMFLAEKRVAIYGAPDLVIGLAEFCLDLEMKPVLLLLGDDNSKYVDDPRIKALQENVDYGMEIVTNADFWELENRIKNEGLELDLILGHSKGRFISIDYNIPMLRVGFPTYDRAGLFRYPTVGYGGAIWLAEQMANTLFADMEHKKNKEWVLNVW
notes: also called MTP-CoxIV::TwinStrep::AvAnfK
binding result [2]: binds

B3: MPP-processed MTP-FAγ51::HA::AnfK fusion polypeptide (gene of SN129; in SL26, SL30, SL93) (enzyme)
chain: ISTQVVRNRGGYPYDVPDYAGGMTCEVKEKGRVGTINPIFTCQPAGAQFVSIGIKDCIGIVHGGQGCVMFVRLIFSQHYKESFELASSSLHEDGAVFGACGRVEEAVDVLLSRYPDVKVVPIITTCSTEIIGDDVDGVIKKLNEGLLKEKFPDREVHLIAMHTPSFVGSMISGYDVAVRDVVRHFAKREAPNDKINLLTGWVNPGDVKELKHLLGEMDIEANVLFEIESFDSPILPDGSAVSHGNTTIEDLIDTGNARATFALNRYEGTKAAEYLQKKFEIPAIIGPTPIGIRNTDIFLQNLKKATGKPIPQSLAHERGVAIDALADLTHMFLAEKRVAIYGAPDLVIGLAEFCLDLEMKPVLLLLGDDNSKYVDDPRIKALQENVDYGMEIVTNADFWELENRIKNEGLELDLILGHSKGRFISIDYNIPMLRVGFPTYDRAGLFRYPTVGYGGAIWLAEQMANTLFADMEHKKNKEWVLNVW
notes: also called HA::AnfK processed
binding result [3]: binds

B4: MPP-processed MTP-FAγ51::NifS::TwinStrep fusion polypeptide encoded by SN231 (scar9::NifS::TS) (enzyme)
chain: not shown
notes: the text names scar9::NifS::TS in the eluate; also called MTP-FAγ51::NifS::TS
binding result [4]: binds

B5: unprocessed MTP-FAγ51::NifS::HA fusion polypeptide encoded by SN31 (enzyme)
chain: MMAMAVFRREGRRLLPSIAARPIAAIRSPLSSDQEEGLLGVRSISTQVVRNRGGMKQVYLDNNATTRLDPMVLEAMMPFLTDFYGNPSSIHDFGIPAQAALERAHQQAAALLGAEYPSEIIFTSCATEATATAIASAIALLPERREIITSVVEHPATLAACEHLERQGYRIHRIAVDSEGALDMAQFRAALSPRVALVSVMWANNETGVLFPIGEMAELAHEQGALFHCDAVQVVGKIPIAVGQTRIDMLSCSAHKFHGPKGVGCLYLRRGTRFRPLLRGGHQEYGRRAGTENICGIVGMGAACELANIHLPGMTHIGQLRNRLEHRLLASVPSVMVMGGGQPRVPGTVNLAFEFIEGEAILLLLNQAGIAASSGSACTSGSLEPSHVMRAMNIPYTAAHGTIRFSLSRYTREKEIDYVVATLPPIIDRLRALSPYWQNGKPRPADAVFTPVYGGGYPYDVPDYA
notes: Full-length translation product, not cleaved by MPP; also called unprocessed form of the NifS fusion polypeptide
binding result [5]: no binding
